Paper doi:10.1101/2025.01.07.631702 (bioRxiv, 2025)

B1: heavy-chain (HC-) FSAP (residues 24-291) (domain or fragment)
chain: FSLMSLLESLDPDWTPDQYDYSYEDYNQEENTSSTLTHAENPDWYYTEDQADPCQPNPCEHGGDCLVHGSTFTCSCLAPFSGNKCQKVQNTCKDNPCGRGQCLITQSPPYYRCVCKHPYTGPSCSQVVPVCRPNPCQNGATCSRHKRRSKFTCACPDQFKGKFCEIGSDDCYVGDGYSYRGKMNRTVNQHACLYWNSHLLLQENYNMFMEDAETHGIGEHNFCRNPDADEKPWCFIKVTNDKVKWEYCDVSACSAQDVAYPEESPTEP
modifications: labelled with the Monolith protein labelling kit RED-NHS (in the MST only)

Columns and labels:
[1] = target: heavy-chain (HC-) FSAP (residues 24-291) (human) (UniProt Q14520); experiment: MST
[2] = target: the molecule itself; experiment: dynamic light scattering

Molecule | Kd [1] [nM] | binding result [2]
Histone-H1 (natural protein) | 2000 | 
B1 |  | binds
